# Experimental data as given in paper PMC5832332 (Nature, 2017).
# B1: Enterococcus faecalis Cas2 (natural protein, UniProt A0A3N3FLR9 1-109, looked up)
# chain: MSYRYMRLLLMFDMPTDTASDRKAYRKFRKFLINEGFIMHQFSVYSKILLNDTANKAMLARLKQNNPQRGLITLLNVTEKQFSRMIYLHGEQDNRVANSDERIVFLGEE
# Target: the molecule itself
# Assay: crystal structure
protein,measurement,value
B1,stoichiometry N,2
